Results on three substances are retold here after publication PMC5112522.

Broadly, the koff is the first-order rate constant of dissociation. The term kon denotes a measure of how fast the partners come together.

A value given as a limit tells only on which side of the number the result lay.

The target in assay [1] is Recombinant gp120 protein from HIV-1 strain IIIB (HIV-1 strain IIIB) (UniProt P04578). Kind of assay: SPR; gp120 (115 RUs) and gp41 (45 RUs) amine-coupled on a CM4 chip; lectins as analytes (two-fold dilutions, 0-20 nM HHA, 0-4000 nM Ld WCFS1, 0-1000 nM Ld CMPG5300); 1:1 binding model, apparent KD; 25 °C, Biacore T200, HBS-P pH 7.4 (10 mM HEPES, 150 mM NaCl, 0.05% P20) with 10 mM CaCl2. For orientation: SPR reads the build-up and loss of mass on a sensor chip optically.

Assay [2] deals with Recombinant gp41 protein from HIV-1 (HXB2 strain) (HIV-1 (HXB2 strain)) (UniProt P04578). Described as above.
Assay [3] has as its target Recombinant gp120 protein from HIV-1 strain IIIB (HIV-1 strain IIIB) (UniProt P04578).

“Lectin domain of Msl (Cmpg5300.05_29) of Lactobacillus plantarum CMPG5300 (domain or fragment)”: in assay [1], the Kd came to 1850 nM, the koff is 0.0564 s⁻¹ and the on-rate constant (kon) was determined as 30500 M⁻¹ s⁻¹. Moreover, in assay [2], the Kd is 1620 nM, the koff was 0.0288 s⁻¹ and the on-rate (kon) was 22900 M⁻¹ s⁻¹. Besides, the inhibition of HIV-1 infection in human CD4+ T-lymphocytic C8166 cell and Raji DCSIGN cultures (data not shown) in assay [3] was greater than 200 µg/mL.

As for “Lectin domain of Msa (Lp_1229) of Lactobacillus plantarum WCFS1 (from UniProt F9UN23 1-1010) (domain or fragment)”, in assay [1], the Kd turned out to be 6260 nM, the off-rate (koff) was 0.0164 s⁻¹ and the kon amounted to 2620 M⁻¹ s⁻¹. In addition, in assay [2], the Kd worked out at 3300 nM, the koff worked out at 0.0236 s⁻¹ and the kon was determined as 7150 M⁻¹ s⁻¹.

For “Hippeastrum hybrid (amaryllis) lectin (HHA) (natural protein)”, in assay [1], the Kd is 1.32 nM, the dissociation rate constant (koff) was found to be 0.00219 s⁻¹ and the association rate constant (kon) worked out at 1.66e+06 M⁻¹ s⁻¹. Also, in assay [2], the Kd was determined as 0.836 nM, the koff stood at 0.00229 s⁻¹ and the on-rate constant (kon) was 2.75e+06 M⁻¹ s⁻¹.
